# Results from patent US20250179183A1.
# Where “and” joins values, the source holds several entries; their conditions need not be identical. Equal entries are not always repeated.
# Experiments:
# [1] = target: SARS-CoV-2 spike N439K variant (pseudovirus RVP-703) (SARS-CoV-2) (UniProt P0DTC2); assay: cell-based or functional assay
# [2] = target: SARS-CoV-2 spike South African Δ3 B.1.351 variant (pseudovirus RVP-724) (SARS-CoV-2) (UniProt P0DTC2); assay: cell-based or functional assay
substance,measurement,setting,value
REGN10987 (antibody),"EC50 (pM) Neutralization, pseudovirus",[1],2260 pM and 2220 pM
same,"EC50 (pM) Neutralization, pseudovirus",[2],2.48 pM and 2.37 pM
